The results in this text go back to article PMC5327734 (Nature communications, 2015).

The experiment concerns the target T1, pre-activated, recombinant, full length, human MST1 protein kinase (human, UniProt Q13043 1-487).
T1 sequence (looked up): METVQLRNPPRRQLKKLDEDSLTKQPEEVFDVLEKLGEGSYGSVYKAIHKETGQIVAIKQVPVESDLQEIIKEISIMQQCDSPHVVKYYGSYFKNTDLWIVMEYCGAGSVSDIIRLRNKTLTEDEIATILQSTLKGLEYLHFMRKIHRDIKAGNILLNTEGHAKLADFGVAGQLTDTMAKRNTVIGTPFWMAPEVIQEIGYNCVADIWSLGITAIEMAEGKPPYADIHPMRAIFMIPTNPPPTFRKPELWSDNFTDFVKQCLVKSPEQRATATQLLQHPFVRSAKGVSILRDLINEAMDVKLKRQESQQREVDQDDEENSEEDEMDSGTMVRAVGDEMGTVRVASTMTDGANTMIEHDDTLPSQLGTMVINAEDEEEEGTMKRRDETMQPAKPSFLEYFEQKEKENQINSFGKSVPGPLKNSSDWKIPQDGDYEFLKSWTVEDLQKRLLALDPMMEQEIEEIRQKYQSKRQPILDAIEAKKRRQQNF
As to the kind of experiment: pull-down.

B1: GST-YAP1-PR/TEAD (residues 2-150) (domain or fragment, UniProt P46937 2-150, looked up)
chain: DPGQQPPPQPAPQGQGQPPSQPPQGQGPPSGPGQPAPAATQAAPQAPPAGHQIVHVRGDSETDLEALFNAVMNPKTANVPQTVPMRLRKLPDSFFKPPEPKSHSRQASTDAGTAGALTPQHVRAHSSPASLQLGAVSPGTLTPTGVVSG
For B1, the binding result is listed as “binds”.
